Reference: US20130115166A1 (CEPHALON AUSTRALIA, published 2013)
Numbering of substitutions follows the chain as printed.

T1: Human IL-23 (human, UniProt P29460 23-328; Q9NPF7 20-189)
T1 construct: Heterodimer of IL-12p40 covalently linked to IL-23p19, purchased (Ebiosciences or RnD Systems); Biotinylated hIL-23 was used in the IL-23R assay; also called hIL-23; rhIL23
T1 sequence 1: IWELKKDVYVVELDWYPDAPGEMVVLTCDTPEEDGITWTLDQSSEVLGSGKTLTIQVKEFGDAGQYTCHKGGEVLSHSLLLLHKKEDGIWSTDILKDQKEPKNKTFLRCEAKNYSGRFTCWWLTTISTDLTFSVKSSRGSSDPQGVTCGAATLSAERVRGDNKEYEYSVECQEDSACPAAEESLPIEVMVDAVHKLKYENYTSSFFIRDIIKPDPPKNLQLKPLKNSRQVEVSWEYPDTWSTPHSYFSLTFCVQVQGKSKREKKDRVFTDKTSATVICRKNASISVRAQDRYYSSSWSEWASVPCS
T1 sequence 2: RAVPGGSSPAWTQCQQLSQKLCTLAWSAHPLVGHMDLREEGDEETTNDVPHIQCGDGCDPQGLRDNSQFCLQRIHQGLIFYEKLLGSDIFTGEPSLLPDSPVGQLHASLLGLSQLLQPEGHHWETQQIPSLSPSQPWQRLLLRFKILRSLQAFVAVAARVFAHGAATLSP

T2: IL-23 (HEK293E-derived) (human, UniProt P29460 23-328; Q9NPF7 20-189)
T2 sequence 1: T1 sequence 1
T2 sequence 2: T1 sequence 2

B1: E11E7Chimera (antibody, human IgG1, kappa, V domains shown)
VH: QVQLKESGPGLVQPSQTLSLTCTVSGFSLISYNVHWVRQPRGKGLEWMGVIWTGGSTDYNSVLKSRLSISRDTSKSQVFLKMHSLQTEDIGTYYCARDKYGLFPGYFDYWGQGVMVTVSS
VL: DIVMTQSPFSLAVSEGEMVTINCKPSQSLLSSGNRKNYLAWYQQKPGQSPKLLIYYASTRQSGVPDRFIGSGSGTDFTLTISDVQAEDLADYYCLQHFNYPWTFGGGTKLELKR
notes: Rat E11E7 variable regions on human constant regions; also called E11E7 chimeric antibody
B2: 21-4 (antibody, human IgG1, kappa, V domains shown)
VH: EVQLQQWGAGLLKPSETLSLTCAVYGFSLISYNVHWIRQPPGKGLEWIGVIWTGGSTDYNSVLKSRVTISRDTSKNQFSLKLSSVTAADTAVYYCARDKYGLFPGYFDYWGQGTLVTVSS
VL: EIVLTQSPATLSLSPGERATLSCKPSQSLLSSGNRKNYLAWYQQKPGQAPRLLIYYASTRQSGIPDRFSGSGSGTDFTLTISRLEPEDFAVYYCLQHFNYPWTFGGGTKVEIKR
notes: Humanized form of E11E7; also called humanized antibody 21-4
B3: 1-4 (antibody, human IgG1, kappa, V domains shown)
VH: B2 VH with F27G, L29F, I30S
VL: B2 VL
notes: Humanized form of E11E7; also called humanized antibody 1-4
B4: 11-23 (antibody, human IgG1, kappa, V domains shown)
VH: QVQLQESGPGLVKPSETLSLTCTVSGGSISSYNVHWIRQPPGKGLEWIGVIWTGGSTDYNPSLKSRVTISRDTSKNQFSLKLSSVTAADTAVYYCARDKYGLFPGYFDYWGQGTLVTVSS
VL: DIVMTQTPLSLPVTPGEPASISCKPSQSLLSSGNRKNYLAWYLQKPGQSPQLLIYYASTRQSGVPDRFSGSGSGTDFTLKISRVEAEDVGVYYCLQHFNYPWTFGQGTKLEIKR
notes: Humanized form of E11E7; also called humanized antibody 11-23
B5: 11-22 (antibody, human IgG1, kappa, V domains shown)
VH: B4 VH
VL: DIVMTQSPDSLAVSLGERATINCKPSQSLLSSGNRKNYLAWYQQKPGQPPKLLIYYASTRQSGVPDRFSGSGSGTDFTLTISSLQAEDVAVYYCLQHFNYPWTFGQGTKLEIKR
notes: Humanized form of E11E7; also called humanized antibody 11-22
B6: 9-22 (antibody, human IgG1, kappa, V domains shown)
VH: B4 VH with G27F, I29L, S30I, R71V
VL: B5 VL
notes: Humanized form of E11E7; also called humanized antibody 9-22
B7: 10-23 (antibody, human IgG1, kappa, V domains shown)
VH: B4 VH with R71V
VL: B4 VL
notes: Humanized form of E11E7; also called humanized antibody 10-23
B8: 10-22 (antibody, human IgG1, kappa, V domains shown)
VH: B4 VH with R71V
VL: B5 VL
notes: Humanized form of E11E7; also called humanized antibody 10-22
B9: 9-23 (antibody, human IgG1, kappa, V domains shown)
VH: B4 VH with G27F, I29L, S30I, R71V
VL: B4 VL
notes: Humanized form of E11E7; also called humanized antibody 9-23
B10: 5-23 (antibody, human IgG1, kappa, V domains shown)
VH: B4 VH with S30I
VL: B4 VL
notes: Humanized form of E11E7; also called humanized antibody 5-23
B11: 7-22 (antibody, human IgG1, kappa, V domains shown)
VH: B4 VH with I29L
VL: B5 VL
notes: Humanized form of E11E7; also called humanized antibody 7-22
B12: 7-23 (antibody, human IgG1, kappa, V domains shown)
VH: B4 VH with I29L
VL: B4 VL
notes: Humanized form of E11E7; also called humanized antibody 7-23
B13: 5-22 (antibody, human IgG1, kappa, V domains shown)
VH: B4 VH with S30I
VL: B5 VL
notes: Humanized form of E11E7; also called humanized antibody 5-22
B14: 8-23 (antibody, human IgG1, kappa, V domains shown)
VH: B4 VH with G27F, I29L, S30I
VL: B4 VL
notes: Humanized form of E11E7; also called humanized antibody 8-23
B15: 6-23 (antibody, human IgG1, kappa, V domains shown)
VH: B4 VH with G27F
VL: B4 VL
notes: Humanized form of E11E7; also called humanized antibody 6-23
B16: 16-12 (antibody, human IgG1, kappa, V domains shown)
VH: B4 VH with E16Q, G27F, I29L, S30I, P61S, S62V, I69M, L82V, S83N
VL: B2 VL with L4M, D66A, R83S, V110A
notes: Humanized form of E11E7; also called humanized antibody 16-12
B17: 14-12 (antibody, human IgG1, kappa, V domains shown)
VH: B4 VH with E16Q, P61S, S62V, I69M, L82V, S83N
VL: B2 VL with L4M, D66A, R83S, V110A
notes: Humanized form of E11E7; also called humanized antibody 14-12
B18: 13-12 (antibody, human IgG1, kappa, V domains shown)
VH: B4 VH with E16Q, G27F, I29L, S30I, P61S, S62V, I69M, R71V, L82V, S83N
VL: B2 VL with L4M, D66A, R83S, V110A
notes: Humanized form of E11E7; also called humanized antibody 13-12
B19: 18-4 (antibody, human IgG1, kappa, V domains shown)
VH: B2 VH with F27G, L29F, I30S, R71V
VL: B2 VL
notes: Humanized form of E11E7; also called humanized antibody 18-4
B20: 15-12 (antibody, human IgG1, kappa, V domains shown)
VH: B4 VH with E16Q, P61S, S62V, I69M, R71V, L82V, S83N
VL: B2 VL with L4M, D66A, R83S, V110A
notes: Humanized form of E11E7; also called humanized antibody 15-12

The binders below were run against T3, IL-23Fc (human, UniProt Q9NPF7 20-189) (assay: ELISA, coated human IL-23 (IL-23Fc), biotinylated antibody, streptavidin-HRP, mOD at 450 nm [panel A]).
T3 construct: Produced in HEK293E
Description: A NuncMaxisorp 96-well plate was coated with human IL-23 diluted to […] in carbonate coating buffer and overnight incubation at 4° C. The plate was washed (three times in 1×PBS-Tween20 (0.05%)) then blocked for an hour with 1% BSA in PBS at room temperature. Biotinylated antibody was prepared starting from 10 μg/ml and serial half log dilutions were performed then 100 μl was added to the plate and incubated for an hour. The plate was washed and Streptavidin-HRP at 1:2000 dilution was added to all wells and further incubated for an hour. The plate was washed and subsequently developed using TMB (Sigma). The color development reaction was stopped by addition of an equal volume of 1M HCl. Absorbance of the resulting reaction was determined using a plate-based spectrophotometer.

EC50 (read off the curve)	Binder
~0.09 µg/mL	B1

These binders were tested against T1, Human IL-23 (assay: competition ELISA: biotinylated hIL-23 (100 ng/ml) pre-incubated with antibody, binding to coated hIL23R-HIS detected with streptavidin-HRP; blocked partner IL-23R).

IC50 (read off the curve)	Binder
~0.04 µg/mL	B1

These binders were tested against T1, Human IL-23 (assay: SPR (Biacore 3000), antibody captured on Protein A, IL-23 as analyte, 1:1 Langmuir fit).
Description: (§1) Using a Biacore 3000, Protein A (Pierce) was immobilized on a CM5 chip using amine coupling chemistry to give 3000 Response Units (RU). Antibody was captured on the surface of the chip in flow cell 2 or 4 with a control surface in flow cell 1 or 3. Human IL-23 was then passed over both flow cells and the response units measured. The surface was then regenerated with 10 mM glycine pH 2.5. For a kinetic run this process was repeated with 5 dilutions of IL-23. Data was double referenced using an injection of running buffer before being fitted using a 1:1 Langmuir equation to determine ka, kd and KD.

Kd	koff	kon	Binder
0.388 nM	0.000202 s⁻¹	521000 M⁻¹ s⁻¹	B2
2.11 nM	0.000733 s⁻¹	348000 M⁻¹ s⁻¹	B3
–	–	542000 M⁻¹ s⁻¹	B1

What follows are binders tested against T1, Human IL-23 (assay: SPR (Biacore 3000), antibody captured on Protein A, IL-23 as analyte, 1:1 Langmuir fit; below the limit of sensitivity).
Description: as §1

Kd	koff	Binder
< 0.1 nM	< 1e-05 s⁻¹	B1

The binders below were run against T4, IL-12p40Fc (human) (assay: ELISA, coated human IL-12p40-Fc, biotinylated antibody, streptavidin-HRP, mOD at 450 nm [panel C]).
T4 construct: also called human p40-Fc; human IL-12p40-Fc fusion protein

binding result	Binder
no binding (tested: 10 ug/ml)	B1

What follows are binders tested against T2, IL-23 (HEK293E-derived) (assay: SPR (Biacore), antibody supernatant captured on Protein A, IL-23 at 5 ug/ml as analyte).
Description: As a result of the humanization processes 22 humanized antibodies were produced and tested for their ability to bind human IL-23 (Table 4). Briefly, 2 mL transfections of the 22 humanized antibodies were screened for antibody expression level and binding activity via SPR. Protein A was immobilized onto FC1 and FC2 (or alternatively FC3 and FC4) of a CM5 research grade sensor chip using amine coupling, giving approximately 3000 RU. FC1 was used as a blank throughout the experiments. The experiments were run in HBS-P buffer (SPR). Antibody-containing cell culture supernatants were diluted in 10× HBS-P buffer at a ratio of 9:1. The diluted antibody was injected over FC2 at a flow rate of 20 μl/min. IL-23 (HEK293E-derived) was passed over the surface of FC1 and FC2 at a concentrations of 5 μg/ml as a kinetic injection with 5 min dissociation time across both
FC. Regeneration of the surface was performed using 10 mM Glycine, pH 1.5. The sensorgram data from FC2 were subtracted from FC1 and a buffer only control. […] The Sequence IDs of the variable heavy and light chains for each antibody are given in the Table 4 along with kd (off-rates) of selected tested antibodies.

koff	Binder
0.00462 s⁻¹	B4
0.00121 s⁻¹	B5
0.000198 s⁻¹	B6
0.013 s⁻¹	B7
0.00313 s⁻¹	B8
0.00056 s⁻¹	B9
0.00639 s⁻¹	B10
0.00102 s⁻¹	B11
0.00391 s⁻¹	B12
0.00198 s⁻¹	B13
0.000285 s⁻¹	B14
0.000566 s⁻¹	B15
0.000191 s⁻¹	B2
0.000224 s⁻¹	B16
0.00349 s⁻¹	B17
0.000855 s⁻¹	B18
0.000616 s⁻¹	B3
0.00133 s⁻¹	B19
0.006 s⁻¹	B20
5.98e-05 s⁻¹	B1
